The term Kd denotes the free concentration of one partner at which half of the binding sites on the other are occupied at equilibrium, for simple one-to-one binding. Read a high Kd as lower affinity. By stoichiometry N is commonly meant a count of units in the complex or per binding partner. In general, Km refers to the substrate concentration at which the rate is half of its maximum. For orientation: kcat means the number of substrate molecules converted per active site and unit of time at saturation.

The text below walks through data of publication PMC3784150, “Characterization of C-S Lyase from C. diphtheriae: A Possible Target for New Antimicrobial Drugs” (BioMed Research International, 2013).

For one data set, the target named is T1, C-S lyase (Corynebacterium diphtheriae, UniProt Q6NFZ9).
T1 construct: gene aecD; recombinant His-tagged apoenzyme
The data set is described as follows: fluorescence titration of apoenzyme (emission at […] nm). It is filed as binding.

Data set [1] concerns the target pyridoxal-5′-phosphate (PLP-) dependent C-S lyase from Corynebacterium diphtheriae (Corynebacterium diphtheriae). As to the kind of experiment: SEC; analytical Superdex 200 HR 10/30, 20 mM sodium phosphate pH 7.2, 150 mM NaCl, 0.1 mL/min; calibrated with mass standards 12.4-669 kDa; apparent mass 85 kDa against about 44 kDa for the subunit. (In gel filtration, larger molecules generally elute earlier.)

In data set [2] the test system is N[C@@H](CCSC[C@H](N)C(=O)O)C(=O)O. As to the kind of experiment: purified protein. The conditions noted are these: PLP; pH 9.0; 30.0 °C.
Another data set relates to N[C@@H](CS)C(=O)O. The data set is described as follows: purified protein. The conditions noted are these: PLP.
In data set [3] the test system is N[C@@H](CCSC[C@H](N)C(=O)O)C(=O)O. As to the kind of experiment: steady-state kinetics, Km. It counts as biochemical, Corynebacterium diphtheriae. The conditions noted are these: PLP; pH 9.0; 30.0 °C.

Compound `Cc1ncc(COP(=O)(O)O)c(C=O)c1O` [PLP, pyridoxal-5′-phosphate] came in with a Kd at C-S lyase of 90 ± 30 nM.

Take “pyridoxal-5′-phosphate (PLP-) dependent C-S lyase from Corynebacterium diphtheriae (enzyme)”: the stoichiometry N in data set [1] is 2.

As to “C-S lyase (Corynebacterium diphtheriae NCTC 13129)”, in data set [2], the Km came out at 1070 ± 220 µM and the kcat was found to be 92.7 ± 4.44 s⁻¹. Besides, the Michaelis constant (Km) in the data set on N[C@@H](CS)C(=O)O is 950 ± 180 µM.

“C-S lyase (Corynebacterium diphtheriae NCTC 13129; Y114F)”: in data set [3], the Km came out at 200 ± 10 µM and the kcat came out at 1.2 ± 0.02 s⁻¹.
